Data on two molecules can be found in paper PMC11529724 (Nature chemical biology, 2024).

Experiment [1] has as its target microtubules assembled from porcine brain tubulin (porcine, UniProt P02550 1-451; P02554 1-445). The experiment can be described thus: co-sedimentation.
In experiment [2] the target is subtilisin-treated unmodified human microtubules missing their β-tubulin tails (human (endogenous in tsA201), UniProt P68363 1-451; P07437 1-444). The experiment can be described thus: TIRF microscopy binding assay.
subtilisin-treated unmodified human microtubules missing their β-tubulin tails, sequence (P68363 whole entry, chain 1 of 2): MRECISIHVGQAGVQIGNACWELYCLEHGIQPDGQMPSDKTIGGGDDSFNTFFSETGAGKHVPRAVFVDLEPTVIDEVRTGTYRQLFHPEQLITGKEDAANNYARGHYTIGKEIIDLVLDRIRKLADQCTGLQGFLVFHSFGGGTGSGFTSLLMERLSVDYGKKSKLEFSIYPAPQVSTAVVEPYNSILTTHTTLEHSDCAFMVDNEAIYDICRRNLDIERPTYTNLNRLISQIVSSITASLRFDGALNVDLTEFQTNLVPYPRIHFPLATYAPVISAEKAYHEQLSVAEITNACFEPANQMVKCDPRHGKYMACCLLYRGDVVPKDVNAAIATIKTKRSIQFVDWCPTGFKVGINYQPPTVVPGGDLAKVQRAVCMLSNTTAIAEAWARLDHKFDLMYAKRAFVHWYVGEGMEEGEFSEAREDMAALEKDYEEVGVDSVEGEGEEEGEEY
subtilisin-treated unmodified human microtubules missing their β-tubulin tails, sequence (P07437 1-427, chain 2 of 2): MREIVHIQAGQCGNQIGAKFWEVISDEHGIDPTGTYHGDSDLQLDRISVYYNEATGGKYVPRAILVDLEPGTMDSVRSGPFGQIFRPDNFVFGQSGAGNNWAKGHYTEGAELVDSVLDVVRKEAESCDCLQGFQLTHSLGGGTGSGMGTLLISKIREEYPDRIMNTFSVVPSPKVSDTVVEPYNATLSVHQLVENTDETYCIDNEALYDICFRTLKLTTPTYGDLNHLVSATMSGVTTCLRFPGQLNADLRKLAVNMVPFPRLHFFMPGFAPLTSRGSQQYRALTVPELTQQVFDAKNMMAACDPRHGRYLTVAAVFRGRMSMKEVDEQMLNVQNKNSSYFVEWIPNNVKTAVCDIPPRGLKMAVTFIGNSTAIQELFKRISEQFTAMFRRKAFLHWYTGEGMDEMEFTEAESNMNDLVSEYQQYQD

microtubules assembled from porcine brain tubulin, sequence (P02550 whole entry, chain 1 of 2): as the sequence (P68363 whole entry, chain 1 of 2) above, with L136S, S232G, I265A, S340T, Q358E counted along it
microtubules assembled from porcine brain tubulin, sequence (P02554 whole entry, chain 2 of 2): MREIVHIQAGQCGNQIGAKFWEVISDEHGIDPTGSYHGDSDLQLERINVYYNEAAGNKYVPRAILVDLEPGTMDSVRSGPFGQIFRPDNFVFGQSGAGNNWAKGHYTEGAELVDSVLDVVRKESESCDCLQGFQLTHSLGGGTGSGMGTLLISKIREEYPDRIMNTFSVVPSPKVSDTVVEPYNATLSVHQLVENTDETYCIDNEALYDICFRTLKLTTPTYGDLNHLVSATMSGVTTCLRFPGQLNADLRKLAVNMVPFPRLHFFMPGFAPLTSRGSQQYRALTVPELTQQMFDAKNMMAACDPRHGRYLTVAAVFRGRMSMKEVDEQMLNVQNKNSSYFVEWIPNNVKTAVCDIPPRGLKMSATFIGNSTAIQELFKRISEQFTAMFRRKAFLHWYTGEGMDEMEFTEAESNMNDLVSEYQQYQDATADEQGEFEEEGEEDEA

The molecule FQDNSSLFQNTVASRARELYARQLIQELRQKQEKKVFLKKARK (domain or fragment, Mus musculus, UniProt A4Q9E8 460-502, looked up) [TTLL6 MTBH1-2 (460–502)] came in with a Kd in experiment [1] of 3.7 µM.

B1: Atto488-labeled TTLL6 (enzyme, Mus musculus, UniProt A4Q9E8 51-502, looked up)
chain: GKKKRKKKRLVINLSNCRYDSVRRAAQQYGLREAGDNDDWTLYWTDYSVSLERVMEMKSYQKINHFPGMSEICRKDLLARNMSRMLKLFPKDFHFFPRTWCLPADWGDLQTYSRTRKNKTYICKPDSGCQGRGIFITRSVKEIKPGEDMICQLYISKPFIIDGFKFDLRVYVLVTSCDPLRVFVYNEGLARFATTSYSHPNLDNLDEICMHLTNYSINKHSSNFVQDAFSGSKRKLSTFNSYMKTHGYDVEQIWRGIEDVIIKTLISAHPVIKHNYHTCFPSHTLNSACFEILGFDILLDRKLKPWLLEVNHSPSFSTDSKLDKEVKDSLLYDALVLINLGNCDKKKVLEEERQRGRFLQQCPNREIRLEEVKGFQAMRLQKTEEYEKKNCGGFRLIYPGLNLEKYDKFFQDNSSLFQNTVASRARELYARQLIQELRQKQEKKVFLKKARK
modifications: Atto488 on the N-terminus, through the synthetic peptide NH2-(Atto488)-LPETGGGG ligated with sortase
With B1, in experiment [2], the “fold decrease in recruitment against MTs with intact β-tails” value was approximately 18 fold.

A word on the Kd: it is the free concentration of one partner at which half of the binding sites on the other are occupied at equilibrium, for simple one-to-one binding.
